Test results reported in IntAct's records for PubMed 21115843.

Target: notc1_mouse Notch1 (UniProt Q01705)

effect of a mutation on the interaction: disrupting interaction
Substance: Presenilin-1 (Homo sapiens) (from UniProt P49768) D385A
